These results are taken from publication PMC9364112, “A natural fusion of flavodiiron, rubredoxin, and rubredoxin oxidoreductase domains is a self-sufficient water-forming oxidase of Trichomonas vaginalis” (The Journal of Biological Chemistry, 2022).

Data set [1] addresses T1, TvFDPF3 (holoTvFDPF3) (Trichomonas vaginalis, UniProt A2E972).
T1 construct: gene TVAG_121610; full length, 871 residues, C-terminal His6 (pET30a, E. coli BL21 Star DE3), ~100 kDa on SDS-PAGE; FDP-core head-to-tail dimer; holo preparation with full FAD/FMN
T1 sequence (A2E972 1-871): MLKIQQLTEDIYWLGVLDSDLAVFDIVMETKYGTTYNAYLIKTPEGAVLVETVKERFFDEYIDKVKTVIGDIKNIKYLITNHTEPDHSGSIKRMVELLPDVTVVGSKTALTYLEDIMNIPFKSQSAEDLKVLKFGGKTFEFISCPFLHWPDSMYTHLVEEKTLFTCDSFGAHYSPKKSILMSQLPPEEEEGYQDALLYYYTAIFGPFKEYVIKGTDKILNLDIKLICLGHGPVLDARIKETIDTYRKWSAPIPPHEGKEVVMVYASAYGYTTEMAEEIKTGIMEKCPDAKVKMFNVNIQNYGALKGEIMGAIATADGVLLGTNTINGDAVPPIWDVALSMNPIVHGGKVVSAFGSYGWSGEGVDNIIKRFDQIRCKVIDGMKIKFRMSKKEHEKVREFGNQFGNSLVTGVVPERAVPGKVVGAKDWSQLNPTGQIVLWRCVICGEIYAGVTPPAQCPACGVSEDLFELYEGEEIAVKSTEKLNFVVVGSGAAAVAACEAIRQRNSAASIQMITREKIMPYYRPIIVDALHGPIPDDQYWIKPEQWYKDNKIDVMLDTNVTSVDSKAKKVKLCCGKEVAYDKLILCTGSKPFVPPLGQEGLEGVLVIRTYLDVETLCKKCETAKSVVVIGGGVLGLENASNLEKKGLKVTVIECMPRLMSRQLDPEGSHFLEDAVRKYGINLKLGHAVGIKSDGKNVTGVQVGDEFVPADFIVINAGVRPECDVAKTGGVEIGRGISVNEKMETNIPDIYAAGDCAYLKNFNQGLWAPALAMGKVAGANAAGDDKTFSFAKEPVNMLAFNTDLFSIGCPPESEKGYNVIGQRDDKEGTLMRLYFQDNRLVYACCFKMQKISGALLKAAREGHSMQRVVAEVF
As to the kind of experiment: anaerobic UV-visible titration, charge-transfer band at […] nm. It counts as binding.

Data set [2] deals with T1, TvFDPF3 (holoTvFDPF3). As to the kind of experiment: LC-MS quantification of bound flavin. It counts as binding. The settings on record: co-purified cofactor, FDP domain. From the text: LC-MS quantification of bound flavin on TvFDPF3 (holoTvFDPF3)
Data set [3] has as its target class F flavodiiron protein 3 from Trichomonas vaginalis (TvFDPF3) (Trichomonas vaginalis). As to the kind of experiment: cryo-EM structure; single-particle cryo-EM of holoTvFDPF3 at 0.8 mg/ml in buffer E (50 mM Hepes-NaOH pH 7.5, 150 mM NaCl); map without symmetry 6.6 Å, C2-symmetric map 6.8 Å; homology models of the domains docked into the density.
Substrate in data set [4]: NC(=O)C1=CN([C@@H]2O[C@H](COP(=O)(O)OP(=O)(O)OC[C@H]3O[C@@H](n4cnc5c(N)ncnc54)[C@H](O)[C@@H]3O)[C@@H](O)[C@H]2O)C=CC1
Description: purified protein. It counts as biochemical, Trichomonas vaginalis. The settings on record: O2 of air-saturated buffer, 50 mM Hepes-NaOH pH 7.5, 150 mM NaCl, 37 °C.

Substrate in data set [5]: NC(=O)C1=CN([C@@H]2O[C@H](COP(=O)(O)OP(=O)(O)OC[C@H]3O[C@@H](n4cnc5c(N)ncnc54)[C@H](OP(=O)(O)O)[C@@H]3O)[C@@H](O)[C@H]2O)C=CC1
As to the kind of experiment: purified protein. The settings on record: O2 of air-saturated buffer, 50 mM Hepes-NaOH pH 7.5, 150 mM NaCl, 37 °C. It counts as biochemical, Trichomonas vaginalis.

[6] abbreviates: preparation with 0.32 FAD and 0.009 FMN per monomer.
Setting [7] is: preparation with 0.32 FAD and 0.009 FMN per monomer, kcat per monomer.
The mark [8] stands for this setting: preparation with 0.32 FAD and 0.009 FMN per monomer, NAD(P)H tested 0.5-600 μM.
[9] abbreviates: preparation with 0.32 FAD and 0.009 FMN per monomer, kcat per monomer, NAD(P)H tested 0.5-600 μM.
The mark [10] stands for this setting: preparation with about 1% FMN, kcat per monomer.
[11] abbreviates: preparation with about 1% FMN, kcat per monomer, NAD(P)H tested 0.5-600 μM.
[12] abbreviates: holoTvFDPF3 (full FAD and FMN), kcat per monomer.

`NC(=O)c1ccc[n+]([C@@H]2O[C@H](COP(=O)(O)OP(=O)(O)OC[C@H]3O[C@@H](n4cnc5c(N)ncnc54)[C@H](O)[C@@H]3O)[C@@H](O)[C@H]2O)c1` [NAD^+] had a Kd in data set [1] of about 130 nM.

Take `Cc1cc2nc3c(=O)[nH]c(=O)nc-3n(C[C@H](O)[C@H](O)[C@H](O)COP(=O)(O)O)c2cc1C` [FMN]: in data set [2], the “FMN per protein monomer” value was 0.92 ± 0.09 mol per mol monomer.

In the case of “class F flavodiiron protein 3 from Trichomonas vaginalis (TvFDPF3) (enzyme)”, the stoichiometry N in data set [3] amounted to 2.

B1: TvFDPF2 (Trichomonas vaginalis G3) (protein)
chain: MLKIQQLTEDIYWLGVLDSNLAVFDIIMETKYGTTYNAYLIKTPEGAVLVETVKETFFDEYIEKVKSVIGDIHKIKYLITNHTEPDHSGSIKKMIELIPDLTVVGSKTALTYLEDIVNIPFKGHSAEDLKVLKFGGKSFEFISCPFLHWPDSMYTWVPEEKTLFTCDSFGAHYSPKKSILMSQLPPEEEEGYQDALLYYYTAIFGPFKEYVIKGTDKILNLDIKLVGLGHGPVLDARIKETIDTYRKWSAPLPTHEGKEVVMVYASAYGYTTEMAEEIKAGILAKIPDAKIKMFNVNIQNYGGLKGEIMNAIATADGVLLGTNTINGDAVPPVWDVALSMNPIVHGGKIVTAFGSYGWSGEGVDNIIARFDQIRCKVIDGCKIKFRMSKKEHGKVNEFGQQFGEALITGKVPERAVPGKVVGAKDWSELNPTGAVVLWRCVICGEIYAGVTPPLQCPACGVGQDLFELYEAEQVTHKSTEPLNYVIVGSGAAAVASIEAIRARNAVAKITMISREKVMPYYRPIIVDALNAEIAPDKYFLKNEEWYKENKIEIKLDTSVTAIDTKAKKVKLCRGDELAYDKLILATGSRPFIPPIGHEGLSGVIVIRTSADVDQLKAACQTAKKAVVIGGGVLGLENASAIKEKGVAVTVVECMPRLMARQLDTEASAVLLEEVKKFGVDVRLGMTVSIKGDGKHVTGVQVGEEFIPADFVVVNAGVRAESEVAAAAGIKCGRGIIVNNKMETNVPDVYAAGDCAFLDNMNQGLWAPALAMGKVAGANACGDNKTFAFAIEPVSMIAMGTDLFACGNPPESAQGYNVVSQKDDKEGSAIKLYFKDNRLVYAAGFRIQKISGSLLKGVREGRSLERIMAEIF
notes: full length, 871 residues, C-terminal His6 (pET30a, E. coli BL21 Star DE3); aggregation-prone; poor FAD and FMN occupancy
As to B1, the kcat in data set [4] (setting [6]) was determined as 9.6 ± 0.3 s⁻¹; in data set [5] (setting [8]), 1.7 ± 0.3 s⁻¹. Also, the kcat/Km stood at 530000 ± 60000 M⁻¹ s⁻¹ in data set [4] (setting [6]) and 1400 ± 300 M⁻¹ s⁻¹ in data set [5] (setting [8]). Also, the figures for the Km in data set [4] (setting [7]) and in data set [5] (setting [9]) were 18 ± 2 µM and 1171 ± 208 µM, respectively. Further, the Vmax in data set [4] (setting [7]) came out at 6.1 µmol/min/mg; in data set [5] (setting [9]), 1.1 µmol/min/mg.

B2: TvFDPF1 (Trichomonas vaginalis G3) (protein)
chain: MLKIQQLTEDIYWLGALDPTLAVFDIIMETKYGTTYNAYMIKTPAGAVLVETVKECFFEEYIEKVKSVIGDINNIKYLITNHTEPDHSGSIKKIIEIIPGLTVIGSKTALTYLEDIVNIPFRGHSAEDLKALKFGGKTFEFISCPFLHWPDSMYTWLPEEQALFTCDSFGAHYSPKKSILMSELPPEEEDGYQEALLYYYTAIFGPFKDFVIKGTDKILDLDIKIICLGHGPVLDARVQETIDTYRKWSEPALPHPGIEVVMVYASAYGYTTEMAEEIKNGILDKIPDASVKMYNVNIQNYGGMKADIMNSIATADGVLLGTNTINGDAVPPIWDVALSMNPIVHGGKIVTAFGSYGWSGEGVDNIINRFDKIRCKVVEPIKIKFRMSKKEHKQVREFGRRFADCLESGEVPDRAVPGRVVGAKDWSELNPTGAIVLWRCVICGEIYAGVTPPLVCPACGVGQDLFELYEAEEVTCSSFENLKFVVVGSGAAAVSAIDAIRARNTVASITMLTREKIMPYYRPIIVDALNSEISPENYYLKNEDWYTENNITVKLGTTVKSIDTARKSLTLSDGSTMQYDRLILATGSRPFVPPIGHEGLTGVYVIRTSNDVELLKETCKTAKKAVVIGGGVLGLENASAIKDRGLSVTVVECMPRLMARQLDPEASEILQGFVRDYGVDLRMGQCVVIKGDGKKVTGVQVGDEFISADFVVVNAGVRAESEVAAAAGIECSRGITVNNKMETSAQDVYAAGDCAYMENINQGLWAPALAMGKVAGANAAGDSKTFHFSIEPVNMIAMGTDLFAVGIPPDSPKGYNVISQRDEKEGTAIKLYFKDNRLVYAAGFKCQKQSGFLLKGVRNGHTLQHVLAELF
notes: full length, 871 residues, C-terminal His6 (pET30a, E. coli BL21 Star DE3); 272 kDa by gel filtration
In the case of B2, in data set [4] (setting [10]), the Km is 2.9 ± 0.8 µM, the Vmax came to 4.9 µmol/min/mg, the kcat is 7.8 ± 1.9 s⁻¹ and the kcat/Km worked out at 2.6e+06 ± 900000 M⁻¹ s⁻¹. Also, in data set [5] (setting [11]), the Km was 1475 ± 486 µM, the Vmax came to 4.9 µmol/min/mg, the kcat is 7.8 ± 3.3 s⁻¹ and the kcat/Km was 5200 ± 2800 M⁻¹ s⁻¹.

B3: TvFDPF3 (holoTvFDPF3) (Trichomonas vaginalis G3) (protein)
chain: T1 sequence (A2E972 1-871)
notes: full length, 871 residues, C-terminal His6 (pET30a, E. coli BL21 Star DE3), ~100 kDa on SDS-PAGE; FDP-core head-to-tail dimer; holo preparation with full FAD/FMN
Consider B3, for which, in data set [4] (setting [12]), the Km is 56 ± 2 µM, the Vmax came out at 291 µmol/min/mg, the kcat worked out at 466 ± 42 s⁻¹ and the catalytic efficiency (kcat/Km) came to 8.3e+06 ± 800000 M⁻¹ s⁻¹. Besides, in data set [5] (setting [12]), the Km was 427 ± 160 µM, the Vmax is 11 µmol/min/mg, the kcat amounted to 18 ± 6 s⁻¹ and the kcat/Km is 41000 ± 21000 M⁻¹ s⁻¹.

In general, Kd refers to the equilibrium constant for the complex coming apart. The stoichiometry N is the number of molecules, sites or subunits per partner or assembly. For orientation: kcat means the number of substrate molecules converted per active site and unit of time at saturation. One may read the kcat/Km as the second-order rate constant that governs catalysis at low substrate concentration. The Km is the concentration of substrate that gives half-maximal velocity. For orientation: Vmax means the top rate of the reaction or transport when substrate is in excess.
